Source: patent US20240141072A1 (published 2024)

Key:
[1] = molecular target: T1, DLL3 targeting trispecific protein containing 52D04, anti-DLL3:anti-ALB:anti-CD3 (TAC) configuration; assay: flow cytometry on NCI-H82, SHP77, DMS53, NCI-H2171 cells
T1 construct: also called DLL3-targeting TriTAC

[2] = molecular target: T2, DLL3 targeting trispecific protein containing 52D04, anti-CD3:anti-ALB:anti-DLL3 (CAT) configuration; assay: as above
T2 construct: also called DLL3-targeting TriTAC
T2 sequence (chain, as listed by the source): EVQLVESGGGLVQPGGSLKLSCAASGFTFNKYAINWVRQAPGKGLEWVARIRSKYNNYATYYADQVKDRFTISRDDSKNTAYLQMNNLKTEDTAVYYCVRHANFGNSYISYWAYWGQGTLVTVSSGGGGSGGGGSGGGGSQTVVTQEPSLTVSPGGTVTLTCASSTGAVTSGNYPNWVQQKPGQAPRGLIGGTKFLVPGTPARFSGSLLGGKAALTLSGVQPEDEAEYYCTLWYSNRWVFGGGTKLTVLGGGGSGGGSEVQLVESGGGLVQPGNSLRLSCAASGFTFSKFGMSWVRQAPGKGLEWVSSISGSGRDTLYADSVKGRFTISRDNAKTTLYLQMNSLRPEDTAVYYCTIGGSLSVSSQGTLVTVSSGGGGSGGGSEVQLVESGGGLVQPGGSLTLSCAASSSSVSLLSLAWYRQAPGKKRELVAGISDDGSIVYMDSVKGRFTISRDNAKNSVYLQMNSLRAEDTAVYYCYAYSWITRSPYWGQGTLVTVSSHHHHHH

T1 sequence (chain, as listed by the source): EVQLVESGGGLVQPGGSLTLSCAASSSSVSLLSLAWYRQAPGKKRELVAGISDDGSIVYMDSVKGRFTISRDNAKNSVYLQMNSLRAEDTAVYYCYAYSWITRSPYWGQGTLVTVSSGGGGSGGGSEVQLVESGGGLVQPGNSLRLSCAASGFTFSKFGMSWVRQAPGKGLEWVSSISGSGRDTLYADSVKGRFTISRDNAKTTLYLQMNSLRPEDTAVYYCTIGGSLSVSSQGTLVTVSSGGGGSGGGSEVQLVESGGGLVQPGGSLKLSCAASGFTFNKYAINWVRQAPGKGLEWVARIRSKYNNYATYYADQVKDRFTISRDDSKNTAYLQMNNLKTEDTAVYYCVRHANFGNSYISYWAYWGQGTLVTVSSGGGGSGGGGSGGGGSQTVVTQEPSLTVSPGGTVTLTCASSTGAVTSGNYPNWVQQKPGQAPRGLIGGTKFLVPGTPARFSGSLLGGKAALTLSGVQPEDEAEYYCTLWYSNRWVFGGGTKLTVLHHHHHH

B1: human DLL3 on DLL3-expressing tumor cell lines (ligand)
chain: AGVFELQIHSFGPGPGPGAPRSPCSARLPCRLFFRVCLKPGLSEEAAESPCALGAALSARGPVYTEQPGAPAPDLPLPDGLLQVPFRDAWPGTFSFIIETWREELGDQIGGPAWSLLARVAGRRRLAAGGPWARDIQRAGAWELRFSYRARCEPPAVGTACTRLCRPRSAPSRCGPGLRPCAPLEDECEAPLVCRAGCSPEHGFCEQPGECRCLEGWTGPLCTVPVSTSSCLSPRGPSSATTGCLVPGPGPCDGNPCANGGSCSETPRSFECTCPRGFYGLRCEVSGVTCADGPCFNGGLCVGGADPDSAYICHCPPGFQGSNCEKRVDRCSLQPCRNGGLCLDLGHALRCRCRAGFAGPRCEHDLDDCAGRACANGGTCVEGGGAHRCSCALGFGGRDCRERADPCAARPCAHGGRCYAHFSGLVCACAPGYMGARCEFPVHPDGASALPAAPPGLRPGDPQRYLLPPALGLLVAAGVAGAALLLVHVRRRGHSQDAGSRLLAGTPEPSVHALPDALNNLRTQEGSGDGPSSSVDWNRPEDVDPQGIYVISAPSIYAREVATPLFPPLHTGRAGQRQHLLFPYPSSILSVK
notes: endogenous DLL3 of human cancer cell lines
[1]
  binding result: binds
[2]
  binding result: binds
